These results are taken from patent US20140087995A1 (published 2014).

Numbered stars: 1 amine (or outer) side, 2 acyl side, 3 side chain; on linkers, the order of the positions; unused ones are H or OH. Bridge positions count the residues as written; N and C are the ends. Side chains are listed from the residue outwards. Ends that are not written are not given here. * marks the point of attachment. C20 diacid = O=C(O)CCCCCCCCCCCCCCCCCCC(=O)*; γGlu = O=C(O)[C@H](CCC(=O)[*:2])N[*:1]

Sequences and labels used below:
T1: human calcitonin receptor (human, UniProt P30988 25-474)
T1 sequence (looked up): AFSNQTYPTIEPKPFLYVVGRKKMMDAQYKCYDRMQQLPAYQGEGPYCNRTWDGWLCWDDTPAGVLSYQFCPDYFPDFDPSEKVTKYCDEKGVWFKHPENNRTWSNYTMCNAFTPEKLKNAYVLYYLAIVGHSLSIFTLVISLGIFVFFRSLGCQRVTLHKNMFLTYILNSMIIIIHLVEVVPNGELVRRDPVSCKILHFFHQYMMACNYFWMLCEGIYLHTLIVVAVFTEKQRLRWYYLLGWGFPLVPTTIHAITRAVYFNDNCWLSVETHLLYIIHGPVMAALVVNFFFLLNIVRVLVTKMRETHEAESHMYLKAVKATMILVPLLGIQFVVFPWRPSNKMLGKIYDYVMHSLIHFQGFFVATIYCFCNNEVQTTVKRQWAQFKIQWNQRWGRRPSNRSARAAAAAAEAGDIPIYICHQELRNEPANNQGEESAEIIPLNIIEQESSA

B1: N^ε1-[(4S)-4-carboxy-4-(19-carboxynonadecanoylamino)butanoyl]-[His14,Arg17,Pro21,Pro27,His35]-h-amylin (peptide)
peptide: K([γGlu-C20 diacid])CNTATCATQRLAHFLRHSSPNFGAIPSSTNVGSHTY-NH2
modifications: disulfide 2-7; N-terminus assumed
SMILES: CC[C@H](C)[C@H](NC(=O)[C@H](C)NC(=O)CNC(=O)[C@H](Cc1ccccc1)NC(=O)[C@H](CC(N)=O)NC(=O)[C@@H]1CCCN1C(=O)[C@H](CO)NC(=O)[C@H](CO)NC(=O)[C@H](Cc1c[nH]cn1)NC(=O)[C@H](CCCNC(=N)N)NC(=O)[C@H](CC(C)C)NC(=O)[C@H](Cc1ccccc1)NC(=O)[C@H](Cc1c[nH]cn1)NC(=O)[C@H](C)NC(=O)[C@H](CC(C)C)NC(=O)[C@H](CCCNC(=N)N)NC(=O)[C@H](CCC(N)=O)NC(=O)[C@@H](NC(=O)[C@H](C)NC(=O)[C@@H]1CSSC[C@H](NC(=O)[C@@H](N)CCCCNC(=O)CC[C@H](NC(=O)CCCCCCCCCCCCCCCCCCC(=O)O)C(=O)O)C(=O)N[C@@H](CC(N)=O)C(=O)N[C@@H]([C@@H](C)O)C(=O)N[C@@H](C)C(=O)N[C@@H]([C@@H](C)O)C(=O)N1)[C@@H](C)O)C(=O)N1CCC[C@H]1C(=O)N[C@@H](CO)C(=O)N[C@@H](CO)C(=O)N[C@H](C(=O)N[C@@H](CC(N)=O)C(=O)N[C@H](C(=O)NCC(=O)N[C@@H](CO)C(=O)N[C@@H](Cc1c[nH]cn1)C(=O)N[C@H](C(=O)N[C@@H](Cc1ccc(O)cc1)C(N)=O)[C@@H](C)O)C(C)C)[C@@H](C)O
notes: also called compound 66
B2: N^ε1-[(4S)-4-carboxy-4-(19-carboxynonadecanoylamino)butanoyl]-[His14,Arg17,Pro21,Pro27,Pro31]-h-amylin (peptide)
peptide: K([γGlu-C20 diacid])CNTATCATQRLAHFLRHSSPNFGAIPSSTPVGSNTY-NH2
modifications: disulfide 2-7; N-terminus assumed
SMILES: CC[C@H](C)[C@H](NC(=O)[C@H](C)NC(=O)CNC(=O)[C@H](Cc1ccccc1)NC(=O)[C@H](CC(N)=O)NC(=O)[C@@H]1CCCN1C(=O)[C@H](CO)NC(=O)[C@H](CO)NC(=O)[C@H](Cc1c[nH]cn1)NC(=O)[C@H](CCCNC(=N)N)NC(=O)[C@H](CC(C)C)NC(=O)[C@H](Cc1ccccc1)NC(=O)[C@H](Cc1c[nH]cn1)NC(=O)[C@H](C)NC(=O)[C@H](CC(C)C)NC(=O)[C@H](CCCNC(=N)N)NC(=O)[C@H](CCC(N)=O)NC(=O)[C@@H](NC(=O)[C@H](C)NC(=O)[C@@H]1CSSC[C@H](NC(=O)[C@@H](N)CCCCNC(=O)CC[C@H](NC(=O)CCCCCCCCCCCCCCCCCCC(=O)O)C(=O)O)C(=O)N[C@@H](CC(N)=O)C(=O)N[C@@H]([C@@H](C)O)C(=O)N[C@@H](C)C(=O)N[C@@H]([C@@H](C)O)C(=O)N1)[C@@H](C)O)C(=O)N1CCC[C@H]1C(=O)N[C@@H](CO)C(=O)N[C@@H](CO)C(=O)N[C@H](C(=O)N1CCC[C@H]1C(=O)N[C@H](C(=O)NCC(=O)N[C@@H](CO)C(=O)N[C@@H](CC(N)=O)C(=O)N[C@H](C(=O)N[C@@H](Cc1ccc(O)cc1)C(N)=O)[C@@H](C)O)C(C)C)[C@@H](C)O
notes: also called compound 62
B3: N^ε1-[(4S)-4-carboxy-4-[[(4S)-4-carboxy-4-(19-carboxynonadecanoylamino)butanoyl]amino]butanoyl]-[Glu14,Arg17,Pro21,Pro27,Arg34]-h-amylin (peptide)
peptide: K([γGlu-γGlu-C20 diacid])CNTATCATQRLAEFLRHSSPNFGAIPSSTNVGRNTY-NH2
modifications: disulfide 2-7; N-terminus assumed
SMILES: CC[C@H](C)[C@H](NC(=O)[C@H](C)NC(=O)CNC(=O)[C@H](Cc1ccccc1)NC(=O)[C@H](CC(N)=O)NC(=O)[C@@H]1CCCN1C(=O)[C@H](CO)NC(=O)[C@H](CO)NC(=O)[C@H](Cc1c[nH]cn1)NC(=O)[C@H](CCCNC(=N)N)NC(=O)[C@H](CC(C)C)NC(=O)[C@H](Cc1ccccc1)NC(=O)[C@H](CCC(=O)O)NC(=O)[C@H](C)NC(=O)[C@H](CC(C)C)NC(=O)[C@H](CCCNC(=N)N)NC(=O)[C@H](CCC(N)=O)NC(=O)[C@@H](NC(=O)[C@H](C)NC(=O)[C@@H]1CSSC[C@H](NC(=O)[C@@H](N)CCCCNC(=O)CC[C@H](NC(=O)CC[C@H](NC(=O)CCCCCCCCCCCCCCCCCCC(=O)O)C(=O)O)C(=O)O)C(=O)N[C@@H](CC(N)=O)C(=O)N[C@@H]([C@@H](C)O)C(=O)N[C@@H](C)C(=O)N[C@@H]([C@@H](C)O)C(=O)N1)[C@@H](C)O)C(=O)N1CCC[C@H]1C(=O)N[C@@H](CO)C(=O)N[C@@H](CO)C(=O)N[C@H](C(=O)N[C@@H](CC(N)=O)C(=O)N[C@H](C(=O)NCC(=O)N[C@@H](CCCNC(=N)N)C(=O)N[C@@H](CC(N)=O)C(=O)N[C@H](C(=O)N[C@@H](Cc1ccc(O)cc1)C(N)=O)[C@@H](C)O)C(C)C)[C@@H](C)O
notes: also called compound 88
B4: N^ε1-[(4S)-4-carboxy-4-[[(4S)-4-carboxy-4-(19-carboxynonadecanoylamino)butanoyl]amino]butanoyl]-[Glu14,Arg17,Pro21,Pro27,Arg35]-h-amylin (peptide)
peptide: K([γGlu-γGlu-C20 diacid])CNTATCATQRLAEFLRHSSPNFGAIPSSTNVGSRTY-NH2
modifications: disulfide 2-7; N-terminus assumed
SMILES: CC[C@H](C)[C@H](NC(=O)[C@H](C)NC(=O)CNC(=O)[C@H](Cc1ccccc1)NC(=O)[C@H](CC(N)=O)NC(=O)[C@@H]1CCCN1C(=O)[C@H](CO)NC(=O)[C@H](CO)NC(=O)[C@H](Cc1c[nH]cn1)NC(=O)[C@H](CCCNC(=N)N)NC(=O)[C@H](CC(C)C)NC(=O)[C@H](Cc1ccccc1)NC(=O)[C@H](CCC(=O)O)NC(=O)[C@H](C)NC(=O)[C@H](CC(C)C)NC(=O)[C@H](CCCNC(=N)N)NC(=O)[C@H](CCC(N)=O)NC(=O)[C@@H](NC(=O)[C@H](C)NC(=O)[C@@H]1CSSC[C@H](NC(=O)[C@@H](N)CCCCNC(=O)CC[C@H](NC(=O)CC[C@H](NC(=O)CCCCCCCCCCCCCCCCCCC(=O)O)C(=O)O)C(=O)O)C(=O)N[C@@H](CC(N)=O)C(=O)N[C@@H]([C@@H](C)O)C(=O)N[C@@H](C)C(=O)N[C@@H]([C@@H](C)O)C(=O)N1)[C@@H](C)O)C(=O)N1CCC[C@H]1C(=O)N[C@@H](CO)C(=O)N[C@@H](CO)C(=O)N[C@H](C(=O)N[C@@H](CC(N)=O)C(=O)N[C@H](C(=O)NCC(=O)N[C@@H](CO)C(=O)N[C@@H](CCCNC(=N)N)C(=O)N[C@H](C(=O)N[C@@H](Cc1ccc(O)cc1)C(N)=O)[C@@H](C)O)C(C)C)[C@@H](C)O
notes: also called compound 89
B5: N^ε1-[(4S)-4-carboxy-4-[[(4S)-4-carboxy-4-(19-carboxynonadecanoylamino)butanoyl]amino]butanoyl]-[Arg17,Pro21,Pro27,His34]-h-amylin (peptide)
peptide: K([γGlu-γGlu-C20 diacid])CNTATCATQRLANFLRHSSPNFGAIPSSTNVGHNTY-NH2
modifications: disulfide 2-7; N-terminus assumed
SMILES: CC[C@H](C)[C@H](NC(=O)[C@H](C)NC(=O)CNC(=O)[C@H](Cc1ccccc1)NC(=O)[C@H](CC(N)=O)NC(=O)[C@@H]1CCCN1C(=O)[C@H](CO)NC(=O)[C@H](CO)NC(=O)[C@H](Cc1c[nH]cn1)NC(=O)[C@H](CCCNC(=N)N)NC(=O)[C@H](CC(C)C)NC(=O)[C@H](Cc1ccccc1)NC(=O)[C@H](CC(N)=O)NC(=O)[C@H](C)NC(=O)[C@H](CC(C)C)NC(=O)[C@H](CCCNC(=N)N)NC(=O)[C@H](CCC(N)=O)NC(=O)[C@@H](NC(=O)[C@H](C)NC(=O)[C@@H]1CSSC[C@H](NC(=O)[C@@H](N)CCCCNC(=O)CC[C@H](NC(=O)CC[C@H](NC(=O)CCCCCCCCCCCCCCCCCCC(=O)O)C(=O)O)C(=O)O)C(=O)N[C@@H](CC(N)=O)C(=O)N[C@@H]([C@@H](C)O)C(=O)N[C@@H](C)C(=O)N[C@@H]([C@@H](C)O)C(=O)N1)[C@@H](C)O)C(=O)N1CCC[C@H]1C(=O)N[C@@H](CO)C(=O)N[C@@H](CO)C(=O)N[C@H](C(=O)N[C@@H](CC(N)=O)C(=O)N[C@H](C(=O)NCC(=O)N[C@@H](Cc1c[nH]cn1)C(=O)N[C@@H](CC(N)=O)C(=O)N[C@H](C(=O)N[C@@H](Cc1ccc(O)cc1)C(N)=O)[C@@H](C)O)C(C)C)[C@@H](C)O
notes: also called compound 86

The experiment has as its target T1, human calcitonin receptor. The experiment can be described thus: cell-based or functional assay.
With B1, the “hCTR funct. EC50” value came to 0.542 nM.

B2: the “hCTR funct. EC50” value came out at 0.539 nM. The figure for B3 is 6.55 nM; for B4 it is 11.2 nM; for B5 it is 19.2 nM.
